Our source for the binding result and Kd values is PMC8489103, “The collagen structure of C1q induces wound healing by engaging discoidin domain receptor 2” (Molecular Medicine, 2021).

First the molecules themselves.
T1: NS0-derived recombinant mouse DDR2-Fc chimera protein (mouse, UniProt Q62371 24-399)
T1 construct: discoidin domain receptor 2 (DDR2), mouse, ectodomain Gln24-Arg399; also called 7479-DR; source: bought: R&D Systems (7479-DR), NS0-derived; not shown: Fc (mouse IgG2A, Glu98-Lys330), C-terminal, kept
T1 sequence (looked up): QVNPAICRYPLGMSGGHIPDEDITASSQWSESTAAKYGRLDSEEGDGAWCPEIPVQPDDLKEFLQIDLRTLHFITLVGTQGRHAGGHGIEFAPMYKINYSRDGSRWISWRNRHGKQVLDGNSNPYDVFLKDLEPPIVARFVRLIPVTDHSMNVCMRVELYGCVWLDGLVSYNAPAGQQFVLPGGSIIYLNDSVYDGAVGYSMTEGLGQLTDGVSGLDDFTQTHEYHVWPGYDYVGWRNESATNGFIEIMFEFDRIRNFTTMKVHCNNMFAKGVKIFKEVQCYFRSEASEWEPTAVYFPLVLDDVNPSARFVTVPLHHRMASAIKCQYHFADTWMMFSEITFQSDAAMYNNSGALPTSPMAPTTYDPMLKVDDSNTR

B1: C1qA peptide (Biotin-GSKGEQGEPGAPGI) (peptide)
peptide: Biotin-GSKGEQGEPGAPGI
notes: first two residues of the printed peptide; also called C1q collagen tail peptide; biotinylated C1qA peptide; source: synthetic peptide (GenScript)
B2: Recombinant human DDR2 possessing the ectodomain of DDR2 (Gln24-Arg399) with 6 × His-tag on C-terminal (domain or fragment, UniProt Q16832 24-399, looked up)
chain: QVNPAICRYPLGMSGGQIPDEDITASSQWSESTAAKYGRLDSEEGDGAWCPEIPVEPDDLKEFLQIDLHTLHFITLVGTQGRHAGGHGIEFAPMYKINYSRDGTRWISWRNRHGKQVLDGNSNPYDIFLKDLEPPIVARFVRFIPVTDHSMNVCMRVELYGCVWLDGLVSYNAPAGQQFVLPGGSIIYLNDSVYDGAVGYSMTEGLGQLTDGVSGLDDFTQTHEYHVWPGYDYVGWRNESATNGYIEIMFEFDRIRNFTTMKVHCNNMFAKGVKIFKEVQCYFRSEASEWEPNAISFPLVLDDVNPSARFVTVPLHHRMASAIKCQYHFADTWMMFSEITFQSDAAMYNNSEALPTSPMAPTTYDPMLKVDDSNTR
notes: discoidin domain receptor 2 (DDR2), human, ectodomain Gln24-Arg399; also called sDDR2; sDDR; source: bought: R&D Systems (2538-DR); not shown: 6xHis, C-terminal, kept

Common to all, as to conditions: both partners purified
Assay [1] addresses B2. As to the kind of experiment: ELISA; C1qA peptide or control peptide coated at 8 μg/mL; sDDR2 (0.1, 0.5, 2, 8 μg/mL) added, RT, 2 h; detected with AP-conjugated anti-6x-His. Background: In an ELISA, binding on a coated surface is turned into a signal by an enzyme label.
Assay [2] concerns the target T1, NS0-derived recombinant mouse DDR2-Fc …. The experiment in a line: far-Western, overlay or dot blot; DDR2-Fc, DDR1-Fc or Fc (20 μg per spot) blotted on nitrocellulose; biotinylated C1qA peptide (200 nM) in 3% skim milk, RT, 2 h; detected with streptavidin.
The next assay has as its target T2, human C1q protein (human, UniProt P02745 23-245; P02746 28-253; P02747 29-245).
T2 construct: complement C1q subcomponent subunit A, human; complement C1q subcomponent subunit B, human; complement C1q subcomponent subunit C, human; the bought protein is purified from human serum; source: bought: Sigma-Aldrich (C1740); for stimulation of cells Complement Technologies (A099); copies: + +
The experiment in a line: SPR; Biacore 3000; sDDR2 immobilised on CM5 chip; C1q 0, 2.5, 5, 10, 20, 40 μg/mL as analyte; 10 mM HEPES pH 7.4, 25 °C, 10 μL/min.

Where no end group is shown, it is not given here. The star is where a group is joined. Biotin = O=C1N[C@H]2[C@H](CS[C@H]2CCCCC(=O)*)N1

T2 sequence (P02745 23-245, chain 1 of 3): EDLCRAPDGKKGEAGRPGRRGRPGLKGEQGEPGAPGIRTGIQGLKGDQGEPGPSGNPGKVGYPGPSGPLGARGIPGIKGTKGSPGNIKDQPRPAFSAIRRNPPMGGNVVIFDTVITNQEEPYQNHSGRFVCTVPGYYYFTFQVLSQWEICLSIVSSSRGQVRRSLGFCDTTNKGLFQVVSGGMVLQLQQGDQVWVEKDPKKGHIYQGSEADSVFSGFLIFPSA
T2 sequence (P02746 28-253, chain 2 of 3): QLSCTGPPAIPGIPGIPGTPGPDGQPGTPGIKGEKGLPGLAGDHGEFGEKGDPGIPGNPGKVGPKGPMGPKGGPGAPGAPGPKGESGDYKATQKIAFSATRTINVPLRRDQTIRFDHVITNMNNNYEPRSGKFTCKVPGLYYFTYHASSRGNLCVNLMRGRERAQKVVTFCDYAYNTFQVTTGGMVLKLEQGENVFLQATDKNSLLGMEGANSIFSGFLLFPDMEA
T2 sequence (P02747 29-245, chain 3 of 3): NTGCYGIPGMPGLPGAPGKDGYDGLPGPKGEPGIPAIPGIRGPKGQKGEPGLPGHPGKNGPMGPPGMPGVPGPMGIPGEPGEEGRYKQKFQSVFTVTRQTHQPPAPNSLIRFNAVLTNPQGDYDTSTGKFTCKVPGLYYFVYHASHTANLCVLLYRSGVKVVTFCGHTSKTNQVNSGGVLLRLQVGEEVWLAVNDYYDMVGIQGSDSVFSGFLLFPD

As for B1, the binding result in assay [1] and in assay [2] was “binds” in each case.

In the case of B2, binding in the assay with human C1q protein was characterised by a dissociation constant (Kd) of 183 nM.

Broadly, the Kd is the equilibrium constant for the complex coming apart. Lower therefore signals higher affinity.
